Reference: paper PMC10238393 (2023)
One block for each binder: values may come before it.

Legend:
[1] = recombinant protein expression level; conditions: glycan lost; control: LRG1 WT
[2] = molecular target: LPHN2 Lec/Olf domain (human); test: ELISA; solid-phase binding assay: LPHN2 extracellular domain variants (100 nM) coated on MaxiSorp 96-well plates, 1 h room temperature, blocked with 1% BSA; 0.001-10 μM LRG1 forms added; detected with anti-LRG1 antibody and peroxidase-conjugated secondary antibody
LPHN2 Lec = molecular target: T1, LPHN2 Lec (Homo sapiens); test: ELISA
T1 chain: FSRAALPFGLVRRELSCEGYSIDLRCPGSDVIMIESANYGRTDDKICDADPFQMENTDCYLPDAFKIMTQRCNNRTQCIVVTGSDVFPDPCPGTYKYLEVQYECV

[3] = molecular target: T2, LPHN2 olfactomedin-like (Olf) domain (human, UniProt O95490 135-394); test: ELISA
T2 chain: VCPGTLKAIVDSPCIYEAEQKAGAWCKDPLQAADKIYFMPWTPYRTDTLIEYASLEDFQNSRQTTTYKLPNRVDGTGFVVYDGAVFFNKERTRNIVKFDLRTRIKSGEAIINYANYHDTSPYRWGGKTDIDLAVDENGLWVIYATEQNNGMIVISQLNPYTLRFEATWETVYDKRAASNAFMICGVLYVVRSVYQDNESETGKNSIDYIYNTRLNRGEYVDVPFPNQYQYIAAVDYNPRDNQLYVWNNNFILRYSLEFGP

[4] = molecular target: LPHN2 ecto-full domain (human); test: ELISA; solid-phase binding assay: LPHN2 extracellular domain variants (100 nM) coated on MaxiSorp 96-well plates, 1 h room temperature, blocked with 1% BSA; 0.001-10 μM LRG1 forms added; detected with anti-LRG1 antibody and peroxidase-conjugated secondary antibody

B1: leucine-rich α-2-glycoprotein 1 (LRG1): N79D (protein)
parent chain: MSSWSRQRPKSPGGIQPHVSRTLFLLLLLAASAWGVTLSPKDCQVFRSDHGSSISCQPPAEIPGYLPADTVHLAVEFFNLTHLPANLLQGASKLQELHLSSNGLESLSPEFLRPVPQLRVLDLTRNALTGLPPGLFQASATLDTLVLKENQLEVLEVSWLHGLKALGHLDLSGNRLRKLPPGLLANFTLLRTLDLGENQLETLPPDLLRGPLQLERLHLEGNKLQVLGKDLLLPQPDLRYLFLNGNKLARVAAGAFQGLRQLDMLDLSNNSLASVPEGLWASLGQPNWDMRDGFDISGNPWICDQNLSDLYRWLQAQKDKMFSQNDTRCAGPEAVKGQTLLAVAKSQ
expression_or_secretion [1]: no change

B2: leucine-rich α-2-glycoprotein 1 (LRG1): N269D (protein)
parent chain: B1 parent chain
expression_or_secretion [1]: no change

B3: leucine-rich α-2-glycoprotein 1 (LRG1): N325D (protein)
parent chain: B1 parent chain
expression_or_secretion [1]: no change

B4: leucine-rich α-2-glycoprotein 1 (LRG1): N186D (protein)
parent chain: B1 parent chain
expression_or_secretion [1]: no change

Kd [2]: 920 nM
B5: Leucine-rich α-2-glycoprotein 1 (LRG1), recombinant human, glycosylated (natural protein)
chain: VTLSPKDCQVFRSDHGSSISCQPPAEIPGYLPADTVHLAVEFFNLTHLPANLLQGASKLQELHLSSNGLESLSPEFLRPVPQLRVLDLTRNALTGLPPGLFQASATLDTLVLKENQLEVLEVSWLHGLKALGHLDLSGNRLRKLPPGLLANFTLLRTLDLGENQLETLPPDLLRGPLQLERLHLEGNKLQVLGKDLLLPQPDLRYLFLNGNKLARVAAGAFQGLRQLDMLDLSNNSLASVPEGLWASLGQPNWDMRDGFDISGNPWICDQNLSDLYRWLQAQKDKMFSQNDTRCAGPEAVKGQTLLAVAKSQ
modifications: N-linked glycans (N-acetylglucosamine seen in the crystal) at N79, N186, N269 and N325; Alexa 647-conjugated in the FACS assay

Kd (LPHN2 Lec): 1100 nM
Kd [3]: 450 nM
Kd [2]: 450 nM
Kd [4]: 840 nM
B6: Deglycosylated LRG1 (LRG1 treated with PNGase F) (natural protein)
chain: B5 chain
modifications: N-glycans removed by PNGase F; Alexa 647-conjugated in the FACS assay
